Measured values reported in patent publication US20260242735A1 (UNIVERSIT T BASEL, published 2026).

How the values were obtained:
Assay in all cases: alanine scan, flow cytometry, HEK293-T;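 note: antibody binding to each alanine-substituted CD33 mutant expressed transiently in HEK293-T, read as fluorescence minus background, mean of duplicates, relative to wild-type CD33 set as 100%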
human CD33 P55A = human CD33 P55A (human, UniProt P20138 18-364)
human CD33 I67A = human CD33 I67A (human, UniProt P20138 18-364)
Sequence of human CD33 I67A (P20138 18-364 I67A limits assumed): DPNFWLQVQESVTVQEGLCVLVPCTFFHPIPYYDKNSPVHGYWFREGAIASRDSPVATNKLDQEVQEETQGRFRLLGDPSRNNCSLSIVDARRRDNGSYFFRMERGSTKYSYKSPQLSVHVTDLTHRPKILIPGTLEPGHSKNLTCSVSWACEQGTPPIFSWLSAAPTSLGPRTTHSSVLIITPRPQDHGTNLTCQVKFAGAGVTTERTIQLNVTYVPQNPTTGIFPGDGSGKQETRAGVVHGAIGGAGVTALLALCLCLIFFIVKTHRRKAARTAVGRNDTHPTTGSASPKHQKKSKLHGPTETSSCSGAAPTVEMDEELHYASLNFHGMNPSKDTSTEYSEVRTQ

human CD33 D79A = human CD33 D79A (human, UniProt P20138 18-364)
Sequence of human CD33 D79A (P20138 18-364 D79A limits assumed): as the sequence (P20138 18-364 I67A limits assumed) above, with A50I, D62A counted along it

human CD33 E84A = human CD33 E84A (human, UniProt P20138 18-364)
Sequence of human CD33 E84A (P20138 18-364 E84A limits assumed): as the sequence (P20138 18-364 I67A limits assumed) above, with A50I, E67A counted along it

human CD33 D95A = human CD33 D95A (human, UniProt P20138 18-364)
Sequence of human CD33 D95A (P20138 18-364 D95A limits assumed): as the sequence (P20138 18-364 I67A limits assumed) above, with A50I, D78A counted along it

human CD33 E81A = human CD33 E81A (human, UniProt P20138 18-364)
Sequence of human CD33 E81A (P20138 18-364 E81A limits assumed): as the sequence (P20138 18-364 I67A limits assumed) above, with A50I, E64A counted along it

human CD33 N76A = human CD33 N76A (human, UniProt P20138 18-364)
Sequence of human CD33 N76A (P20138 18-364 N76A limits assumed): as the sequence (P20138 18-364 I67A limits assumed) above, with A50I, N59A counted along it

human CD33 A74S = human CD33 A74S (human, UniProt P20138 18-364)
Sequence of human CD33 A74S (P20138 18-364 A74S limits assumed): as the sequence (P20138 18-364 I67A limits assumed) above, with A50I, A57S counted along it

human CD33 V56A = human CD33 V56A (human, UniProt P20138 18-364)
Sequence of human CD33 V56A (P20138 18-364 V56A limits assumed): as the sequence (P20138 18-364 I67A limits assumed) above, with V39A, A50I counted along it

human CD33 R109A = human CD33 R109A (human, UniProt P20138 18-364)
Sequence of human CD33 R109A (P20138 18-364 R109A limits assumed): as the sequence (P20138 18-364 I67A limits assumed) above, with A50I, R92A counted along it

human CD33 R119A = human CD33 R119A (human, UniProt P20138 18-364)
Sequence of human CD33 R119A (P20138 18-364 R119A limits assumed): as the sequence (P20138 18-364 I67A limits assumed) above, with A50I, R102A counted along it

human CD33 A108S = human CD33 A108S (human, UniProt P20138 18-364)
Sequence of human CD33 A108S (P20138 18-364 A108S limits assumed): as the sequence (P20138 18-364 I67A limits assumed) above, with A50I, A91S counted along it

human CD33 Y50A = human CD33 Y50A (human, UniProt P20138 18-364)
Sequence of human CD33 Y50A (P20138 18-364 Y50A limits assumed): as the sequence (P20138 18-364 I67A limits assumed) above, with Y33A, A50I counted along it

human CD33 G114A = human CD33 G114A (human, UniProt P20138 18-364)
Sequence of human CD33 G114A (P20138 18-364 G114A limits assumed): as the sequence (P20138 18-364 I67A limits assumed) above, with A50I, G97A counted along it

human CD33 R98A = human CD33 R98A (human, UniProt P20138 18-364)
Sequence of human CD33 R98A (P20138 18-364 R98A limits assumed): as the sequence (P20138 18-364 I67A limits assumed) above, with A50I, R81A counted along it

human CD33 W60A = human CD33 W60A (human, UniProt P20138 18-364)
Sequence of human CD33 W60A (P20138 18-364 W60A limits assumed): as the sequence (P20138 18-364 I67A limits assumed) above, with W43A, A50I counted along it

human CD33 E85A = human CD33 E85A (human, UniProt P20138 18-364)
Sequence of human CD33 E85A (P20138 18-364 E85A limits assumed): as the sequence (P20138 18-364 I67A limits assumed) above, with A50I, E68A counted along it

human CD33 N100A = human CD33 N100A (human, UniProt P20138 18-364)
Sequence of human CD33 N100A (P20138 18-364 N100A limits assumed): as the sequence (P20138 18-364 I67A limits assumed) above, with A50I, N83A counted along it

human CD33 V106A = human CD33 V106A (human, UniProt P20138 18-364)
Sequence of human CD33 V106A (P20138 18-364 V106A limits assumed): as the sequence (P20138 18-364 I67A limits assumed) above, with A50I, V89A counted along it

human CD33 L78A = human CD33 L78A (human, UniProt P20138 18-364)
Sequence of human CD33 L78A (P20138 18-364 L78A limits assumed): as the sequence (P20138 18-364 I67A limits assumed) above, with A50I, L61A counted along it

human CD33 Q87A = human CD33 Q87A (human, UniProt P20138 18-364)
Sequence of human CD33 Q87A (P20138 18-364 Q87A limits assumed): as the sequence (P20138 18-364 I67A limits assumed) above, with A50I, Q70A counted along it

human CD33 E63A = human CD33 E63A (human, UniProt P20138 18-364)
Sequence of human CD33 E63A (P20138 18-364 E63A limits assumed): as the sequence (P20138 18-364 I67A limits assumed) above, with E46A, A50I counted along it

human CD33 L93A = human CD33 L93A (human, UniProt P20138 18-364)
Sequence of human CD33 L93A (P20138 18-364 L93A limits assumed): as the sequence (P20138 18-364 I67A limits assumed) above, with A50I, L76A counted along it

human CD33 E170A = target: T1, human CD33 E170A (human, UniProt P20138 18-364)
T1 construct: alanine scan clone, transfected HEK293-T
T1 sequence (P20138 18-364 E170A limits assumed): as the sequence (P20138 18-364 I67A limits assumed) above, with A50I, E153A counted along it

human CD33 K130A = target: T2, human CD33 K130A (human, UniProt P20138 18-364)
T2 construct: alanine scan clone, transfected HEK293-T
T2 sequence (P20138 18-364 K130A limits assumed): as the sequence (P20138 18-364 I67A limits assumed) above, with A50I, K113A counted along it

human CD33 V136A = target: T3, human CD33 V136A (human, UniProt P20138 18-364)
T3 construct: alanine scan clone, transfected HEK293-T
T3 sequence (P20138 18-364 V136A limits assumed): as the sequence (P20138 18-364 I67A limits assumed) above, with A50I, V119A counted along it

human CD33 E154A = target: T4, human CD33 E154A (human, UniProt P20138 18-364)
T4 construct: alanine scan clone, transfected HEK293-T
T4 sequence (P20138 18-364 E154A limits assumed): as the sequence (P20138 18-364 I67A limits assumed) above, with A50I, E137A counted along it

human CD33 G172A = target: T5, human CD33 G172A (human, UniProt P20138 18-364)
T5 construct: alanine scan clone, transfected HEK293-T
T5 sequence (P20138 18-364 G172A limits assumed): as the sequence (P20138 18-364 I67A limits assumed) above, with A50I, G155A counted along it

human CD33 L148A = target: T6, human CD33 L148A (human, UniProt P20138 18-364)
T6 construct: alanine scan clone, transfected HEK293-T
T6 sequence (P20138 18-364 L148A limits assumed): as the sequence (P20138 18-364 I67A limits assumed) above, with A50I, L131A counted along it

human CD33 T191A = target: T7, human CD33 T191A (human, UniProt P20138 18-364)
T7 construct: alanine scan clone, transfected HEK293-T
T7 sequence (P20138 18-364 T191A limits assumed): as the sequence (P20138 18-364 I67A limits assumed) above, with A50I, T174A counted along it

human CD33 S131A = target: T8, human CD33 S131A (human, UniProt P20138 18-364)
T8 construct: alanine scan clone, transfected HEK293-T
T8 sequence (P20138 18-364 S131A limits assumed): as the sequence (P20138 18-364 I67A limits assumed) above, with A50I, S114A counted along it

human CD33 G151A = target: T9, human CD33 G151A (human, UniProt P20138 18-364)
T9 construct: alanine scan clone, transfected HEK293-T
T9 sequence (P20138 18-364 G151A limits assumed): as the sequence (P20138 18-364 I67A limits assumed) above, with A50I, G134A counted along it

human CD33 H193A = target: T10, human CD33 H193A (human, UniProt P20138 18-364)
T10 construct: alanine scan clone, transfected HEK293-T
T10 sequence (P20138 18-364 H193A limits assumed): as the sequence (P20138 18-364 I67A limits assumed) above, with A50I, H176A counted along it

human CD33 P132A = target: T11, human CD33 P132A (human, UniProt P20138 18-364)
T11 construct: alanine scan clone, transfected HEK293-T
T11 sequence (P20138 18-364 P132A limits assumed): as the sequence (P20138 18-364 I67A limits assumed) above, with A50I, P115A counted along it

human CD33 T142A = target: T12, human CD33 T142A (human, UniProt P20138 18-364)
T12 construct: alanine scan clone, transfected HEK293-T
T12 sequence (P20138 18-364 T142A limits assumed): as the sequence (P20138 18-364 I67A limits assumed) above, with A50I, T125A counted along it

human CD33 C212A = human CD33 C212A (human, UniProt P20138 18-364)
Sequence of human CD33 C212A (P20138 18-364 C212A limits assumed): as the sequence (P20138 18-364 I67A limits assumed) above, with A50I, C195A counted along it

Sequence of human CD33 P55A (P20138 18-364 P55A limits assumed): as the sequence (P20138 18-364 I67A limits assumed) above, with P38A, A50I counted along it

| Binder | Mean % WT Binding (human CD33 P55A) | Mean % WT Binding (human CD33 I67A) | Mean % WT Binding (human CD33 D79A) | Mean % WT Binding (human CD33 E84A) | Mean % WT Binding (human CD33 D95A) | Mean % WT Binding (human CD33 E81A) | Mean % WT Binding (human CD33 N76A) | Mean % WT Binding (human CD33 A74S) | Mean % WT Binding (human CD33 V56A) | Mean % WT Binding (human CD33 R109A) | Mean % WT Binding (human CD33 R119A) | Mean % WT Binding (human CD33 A108S) | Mean % WT Binding (human CD33 Y50A) | Mean % WT Binding (human CD33 G114A) | Mean % WT Binding (human CD33 R98A) | Mean % WT Binding (human CD33 W60A) | Mean % WT Binding (human CD33 E85A) | Mean % WT Binding (human CD33 N100A) | Mean % WT Binding (human CD33 V106A) | Mean % WT Binding (human CD33 L78A) | other results |
| --- | --- | --- | --- | --- | --- | --- | --- | --- | --- | --- | --- | --- | --- | --- | --- | --- | --- | --- | --- | --- | --- |
| Refmab #6 (antibody, V domains shown, Full-length format is human IgG1 Fc silent (PG-LALA); also made as Fab; The alanine scan used IgG or Fab) VH: QVQLQQPGAEVVKPGASVKMSCKASGYTFTSYYIHWIKQTPGQGLEWVGVIYPGNDDISYNQKFQGKATLTADKSSTTAYMQLSSLTSEDSAVYYCAREVRLRYFDVWGQGTTVTVSS VL: EIVLTQSPGSLAVSPGERVTMSCKSSQSVFFSSSQKNYLAWYQQIPGQSPRLLIYWASTRESGVPDRFTGSGSGTDFTLTISSVQPEDLAIYYCHQYLSSRTFGQGTKLEIK | 101 % WT binding | 108 % WT binding | 78.2 % WT binding | 97.4 % WT binding | 86.3 % WT binding | 88.1 % WT binding | 86.8 % WT binding | 94.9 % WT binding | 113 % WT binding | 107 % WT binding | 123 % WT binding | 78.4 % WT binding | 113 % WT binding | 106 % WT binding | 94.2 % WT binding | 2.1 % WT binding | 94.4 % WT binding | 83.9 % WT binding | 125 % WT binding | 110 % WT binding | Mean % WT Binding (human CD33 Q87A): 96.9 % WT binding; Mean % WT Binding (human CD33 E63A): 90.9 % WT binding; Mean % WT Binding (human CD33 L93A): 94.2 % WT binding |
| Refmab #6 (antibody, V domains shown, The alanine scan used IgG or Fab) VH: QVQLQQPGAEVVKPGASVKMSCKASGYTFTSYYIHWIKQTPGQGLEWVGVIYPGNDDISYNQKFQGKATLTADKSSTTAYMQLSSLTSEDSAVYYCAREVRLRYFDVWGQGTTVTVSS VL: EIVLTQSPGSLAVSPGERVTMSCKSSQSVFFSSSQKNYLAWYQQIPGQSPRLLIYWASTRESGVPDRFTGSGSGTDFTLTISSVQPEDLAIYYCHQYLSSRTFGQGTKLEIK |  |  |  |  |  |  |  |  |  |  |  |  |  |  |  |  |  |  |  |  | Mean % WT Binding (human CD33 E170A): 89.5 % WT binding; Mean % WT Binding (human CD33 K130A): 119 % WT binding; Mean % WT Binding (human CD33 V136A): 65.8 % WT binding; Mean % WT Binding (human CD33 E154A): 86.2 % WT binding; Mean % WT Binding (human CD33 G172A): 76.8 % WT binding; Mean % WT Binding (human CD33 L148A): 93.3 % WT binding; Mean % WT Binding (human CD33 T191A): 88.5 % WT binding; Mean % WT Binding (human CD33 S131A): 10.8 % WT binding; Mean % WT Binding (human CD33 G151A): 91.1 % WT binding; Mean % WT Binding (human CD33 H193A): 100 % WT binding; Mean % WT Binding (human CD33 P132A): 3.6 % WT binding; Mean % WT Binding (human CD33 T142A): 91.6 % WT binding |
| Refmab #3 (antibody, V domains shown, In the alanine scan antibodies were used as IgG or Fab) VH: QVQLVQSGAEVKKPGSSVKVSCKASGYTFTDYNMHWVRQAPGQGLEWIGYIYPYNGGTGYNQKFKSKATITADESTNTAYMELSSLRSEDTAVYYCARGRPAMDYWGQGTLVTVSS VL: DIQMTQSPSSLSASVGDRVTITCRASESVDNYGISFMNWFQQKPGKAPKLLIYAASNQGSGVPSRFSGSGSGTDFTLTISSLQPDDFATYYCQQSKEVPWTFGQGTKVEIK |  |  |  |  |  |  |  |  |  |  |  |  |  |  |  |  |  |  |  |  | Mean % WT Binding (human CD33 C212A): 57.3% |
| Refmab #5 (antibody, V domains shown, Full-length format is human IgG1 Fc silent (PG-LALA); also made as Fab; The alanine scan used IgG or Fab) VH: QVQLVQSGAEVKKPGASVKVSCKASGYTFTNYDINWVRQAPGQGLEWIGWIYPGDGSTKYNEKFKAKATLTADTSTSTAYMELRSLRSDDTAVYYCASGYEDAMDYWGQGTTVTVSS VL: DIQMTQSPSSLSASVGDRVTINCKASQDINSYLSWFQQKPGKAPKTLIYRANRLVDGVPSRFSGSGSGQDYTLTISSLQPEDFATYYCLQYDEFPLTFGGGTKVEIK | 118 % WT binding | 157 % WT binding | 91.3 % WT binding | 141 % WT binding | 122 % WT binding | 140 % WT binding | 124 % WT binding | 99 % WT binding | 93 % WT binding | 103 % WT binding | 167 % WT binding | 105 % WT binding | 55.7 % WT binding | 79 % WT binding | 134 % WT binding | 35.9 % WT binding | 158 % WT binding | 165 % WT binding | 106 % WT binding | 99.3 % WT binding | Mean % WT Binding (human CD33 Q87A): 137 % WT binding; Mean % WT Binding (human CD33 E63A): 140 % WT binding; Mean % WT Binding (human CD33 L93A): 134 % WT binding |
| Refmab #5 (antibody, V domains shown, The alanine scan used IgG or Fab) VH: QVQLVQSGAEVKKPGASVKVSCKASGYTFTNYDINWVRQAPGQGLEWIGWIYPGDGSTKYNEKFKAKATLTADTSTSTAYMELRSLRSDDTAVYYCASGYEDAMDYWGQGTTVTVSS VL: DIQMTQSPSSLSASVGDRVTINCKASQDINSYLSWFQQKPGKAPKTLIYRANRLVDGVPSRFSGSGSGQDYTLTISSLQPEDFATYYCLQYDEFPLTFGGGTKVEIK |  |  |  |  |  |  |  |  |  |  |  |  |  |  |  |  |  |  |  |  | Mean % WT Binding (human CD33 E170A): 110 % WT binding; Mean % WT Binding (human CD33 K130A): 271 % WT binding; Mean % WT Binding (human CD33 V136A): 104 % WT binding; Mean % WT Binding (human CD33 E154A): 112 % WT binding; Mean % WT Binding (human CD33 G172A): 92.7 % WT binding; Mean % WT Binding (human CD33 L148A): 113 % WT binding; Mean % WT Binding (human CD33 T191A): 115 % WT binding; Mean % WT Binding (human CD33 S131A): 106 % WT binding; Mean % WT Binding (human CD33 G151A): 99.6 % WT binding; Mean % WT Binding (human CD33 H193A): 119 % WT binding; Mean % WT Binding (human CD33 P132A): 97.3 % WT binding; Mean % WT Binding (human CD33 T142A): 101 % WT binding |
| Refmab #4 (antibody, V domains shown, In the alanine scan antibodies were used as IgG or Fab) VH: QVQLVQSGAEVKKPGESVKVSCKASGYTFTNYGMNWVKQAPGQGLEWMGWINTYTGEPTYADKFQGRVTMTTDTSTSTAYMEIRNLGGDDTAVYYCARWSWSDGYYVYFDYWGQGTSVTVSS VL: DIVMTQSPDSLTVSLGERTTINCKSSQSVLDSSTNKNSLAWYQQKPGQPPKLLLSWASTRESGIPDRFSGSGSGTDFTLTIDSPQPEDSATYYCQQSAHFPITFGQGTRLEIK |  |  |  |  |  |  |  |  |  |  |  |  |  |  |  |  |  |  |  |  | Mean % WT Binding (human CD33 C212A): 11% |
